The source of these data is US20260226142A1 (MAX PLANCK GESELLSCHAFT ZUR F RDERUNG DER WISSENSCHAFTEN E V, published 2026).

In experiment [1] the target is T1, Cys-HLA (Staphylococcus aureus).
Experiment [2] deals with T1, Cys-HLA. The source holds these as a separate data set.
For experiment [3], the target named is T1, Cys-HLA. The source holds these as a separate data set.
The target in experiment [4] is T1, Cys-HLA. The source holds these as a separate data set.

Residue numbers refer to the chain shown, from its start. Where two headings read alike, the source gives them in different places.

B1: Bm28A12 (VHH)
VHH: QVQLVESGGGLVQAGGSLRLSCVVSGRALSSYNLAWFRQSPGKEREWIATIMPSADKAHYPDFLEGRFTISGDNTENTLYLQMNSLKPEDTAIYYCAAREPSYYHALFEYEYNLWGQGTQVTVSS
Turning to B1, the Kd was not above 0.01 nM in experiment [1] and 0.13 nM in experiment [2].

B2: Ma8E03 (VHH)
VHH: QVQLVESGGGLVHPGGSLRLSCAASGSSLDHYVIGWFRQVPGKEREGVSCISRSGGSTNYADSVKGRFTVSRDNVKNMVYLQMNSLEPEDSAEYYCAAQRNLGNFCVLGWLEYDDWGQGTQVTVSS
Molecule B2 yielded a Kd in experiment [1] not above 0.01 nM.

B3: Ma8G02 (VHH)
VHH: B2 VHH with H13L, V40Y, L111V
In experiment [1], B3 displayed a Kd not above 0.01 nM.

B4: Ma7F02 (VHH)
VHH: QVQLVESGGGLVQAGGSLRLSCTVSGSIDSLHTMGWFRQAPGKKRDFVAVVSWSGGNTYYPDYAKGRFTISRDNTKNTVYLQMNSLKPEDTAIYYCAAESGSGNYWKIWEHEFDSWGQGTQVTVSS
B4: the Kd in experiment [1] was 0.04 nM; in experiment [3], approximately 0.05 nM.

B5: Bm28C09 (VHH)
VHH: QVQLVESGGSVVQAGGSLRLSCTASGRNFNSYAMGWFRRPPGEQRDFIAAIIRSTGKTTYADSDSVKGRFTISKDSSGNTVYLQMNNLKPEDTAIYYCAGGDAGPYAFGYDYWGQGTQVTVSS
As for B5, the results for the Kd in experiment [1] and in experiment [2] were not above 0.01 nM and 0.015 nM, respectively.

B6: Bm28F09 (VHH)
VHH: QVQLVESGGGLVEPGGSLTLSCAASGFTSKNYYIGWFRQAPGKYREGVASIGASDGSLYIADSVKGRFTISSDNAKNTVYLHPRNLKPEDSGVYYCATGRDSWRWVPSAMDYWGKGIQVTVSS
Molecule B6 displayed a Kd in experiment [1] of 0.15 nM.

B7: Bm28H01 (VHH)
VHH: QVQLVESGGGLVQPGGSLTLSCAASGFTLGDRTLGWFRQVAGKQREGVASIASGVLSAYIADSVKGRFTISRDDAKNTIYLHMNNLKPDDTGVYYCARGVDSWRWVPSTMDLWGKGILVTVSS
In experiment [1], B7 displayed an equilibrium dissociation constant (Kd) not above 0.01 nM.

B8: Ma7B01 (VHH)
VHH: QVQLVESGGGLVQAGDSLSLSCAASGRTFSNYAMGWFRQAPGKERHFVAVINQIGDSTWYPDFAKGRFTISRDNAKNTLYLQMNSLKPEDTAVYYCAATDPRSYWRIWPHEYGYWGQGTQVTVSS
For B8, in experiment [1], binding was characterised by a dissociation constant (Kd) of 0.05 nM. That is a picomolar value.

B9: Ma7E01 (VHH)
VHH: B8 VHH with L11S, A23V, G26E, Q53P, D56E, S57E, P109E, Y112F, G113D
B9 returned a Kd in experiment [1] not above 0.01 nM.

B10: Bm28C04 (VHH)
VHH: QVQLVESGGGSVQPGNSLRLSCKVSGRTFNSYALGWFRRRPGDQRDFVASIIRSTGGTSYADSVKGRFTISYDNVQNTVDLQMNSLEPEDTAIYYCAGGDGHIYAFGYDYWGQGTQVTVSS
With B10, the Kd in experiment [1] was not above 0.01 nM; in experiment [2], 0.04 nM; in experiment [3], approximately 0.05 nM.

B11: Bm28H07 (VHH)
VHH: B10 VHH with N84S
As for B11, the Kd in experiment [1] is not above 0.01 nM.

B12: Ma7A07 (VHH)
VHH: QVQLVESGGGLVQPGGSLRLSCAASGFTLGDYTLGWFRQAPGKQREGVSSIASSALSIYIADSVKGRFTISRDDAKNTIYLHMNNLKPEDTGVYYCARGVDSWRWVPSAMDLWGKGTLVTVSS
As to B12, the values for the Kd in experiment [1] and in experiment [4] were not above 0.01 nM and 0.006 nM, respectively.

B13: Ma7A08 (VHH)
VHH: B12 VHH with R19T, A55V, I58V
For the molecule B13, the Kd in experiment [1] was not above 0.01 nM.

B14: Ma7B12 (VHH)
VHH: B12 VHH with D74N, I79V, V100I, S102N, L118Q
In turn, B14 showed a Kd in experiment [1] not above 0.01 nM.

B15: Ma7B03 (VHH)
VHH: B12 VHH with G30S, D31N, T33Y, L34V, A52G, A55D, D74N, E89D, V100T, L118Q
As to B15, the Kd in experiment [1] was not above 0.01 nM.

B16: Ma8A05 (VHH)
VHH: QVQLVESGGGLVQPGGSLRLSCAASPASGFTLDLYTIAWFLQAPGKEREGVSAISLSDEITYYSDAVKGRFTISRDSAKNTVFLQMDRLKPEDTGVYYCAIGAFDFILKEADADYWGQGTQVTVSS
In experiment [1], B16 showed a Kd of 0.6 nM.

B17: Ma31A12 (VHH)
VHH: B16 VHH with P26A, A111V
In experiment [1], B17 gave a Kd of 0.065 nM.

B18: Ma31B06 (VHH)
VHH: B16 VHH with E6Q, S17T
In the case of B18, binding in experiment [1] was put at a Kd of 0.075 nM. The Kd values of the last two molecules are within 1.5-fold of each other.

B19: Ma8D05 (VHH)
VHH: B16 VHH with A66T
On to B19, for which the Kd in experiment [1] worked out at 1 nM.

B20: Ma8H03 (VHH)
VHH: QVQLVESGGGLVHPGGSLRLSCAASGSSLDHYVIGWFRQVPGKQREGISCISSGGSTNYADSVKGRFTVSRDNVKSTVYLQMNSLAPDDSAEYYCAAQRNLGNFCVLGWLEYDDWGQGTQVTVSS
Take B20: the equilibrium dissociation constant (Kd) in experiment [1] is not above 0.01 nM; in experiment [4], not above 0.001 nM.

B21: Ma7C11 (VHH)
VHH: QVQLVESGGGLVRAGGSLRLSCAASGSISSVNGMGWFRQAPGKERLFVAQVSLLDSSTYYADSVKGRFTISRDDAKNTMYLQMNNVRPEETAVYYCAATKLRIGTAFSSEYDYWGQGTQVTVSS
In turn, B21 displayed a Kd in experiment [1] of 0.3 nM.

B22: Ma7D06 (VHH)
VHH: QVQLVESGGGLVQAGGSLRLSCAASGSISGIDTMAWFRQIPGKDREFVAVIKWAAGSTWYPDFVKGRFTVSRDNAKNMVYLQMDSVKPEDTAIYYCAAAAGEKYYYRLFPYEYDYWGQGTQVTVSS
B22: binding in experiment [1] was characterised by a dissociation constant (Kd) of 0.06 nM.

B23: Ma8D07 (VHH)
VHH: QVQLVESGGGLVQPGGSLRLSCAASESIYKLNAMGWYRQAPGKELELVTTISSGGSTFYTDPVKGRFTISTDNAKNTVYLQMRSLKPEDTAMYYCAANPTYNHYSARGQGTQVTVSS
For the molecule B23, the Kd in experiment [1] came to 0.8 nM.

B24: Ma8D08 (VHH)
VHH: B23 VHH with L11F, P14A
For B24, in experiment [1], the Kd is 1 nM.

B25: Ma7C02 (VHH)
VHH: QVQLVESGGGLVQAGGSLRLSCAASGRTFSDYAMGWFRQAAGKDRDFVAVITRSGDSTYYPDSTKGRFTISRDNAKNTMYLQMNSLKPEDTARYYCAATDPTNYWRIWEHEFDYWGQGTQVTVSS
In the case of B25, the Kd in experiment [1] was found to be 0.09 nM. Compared with the last molecule, the Kd is about 11-fold lower.

The term Kd denotes the equilibrium constant for the complex coming apart. Read a low Kd as higher affinity.
